Measured values as given in the supplement of paper PMC10567573.

B1: PLD5 (parent)
chain: VTYMNMTAYNKGRLQSSFWIVDKQ

Variants of: B1
Assay: protein stability index of a GFP-peptide fusion (GPS, HEK-293T) (PSI 1-6); higher = more stable
Conditions: c terminus: a fixed tail appended
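Also: lentivirally expressed fusions sorted by FACS into six bins by GFP to DsRed ratio, PSI derived from sequencing read proportions per bin multiplied by bin number.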

Protein stability index of substitutions, site by site:
A8: P 3.56 | S 2.24 | T 2.02 | V 3.16 | E 1.46 | M 2.46 | C 2.68 | Y 2.39 | D 1.1 | I 3.64 | F 2.41 | R 1.9 | G 2.11 | H 1.93 | N 2.29 | L 2.22 | K 1.95 | Q 1.5
V1: C 1.49 | E 2.35 | A 1.44 | W 2.46 | G 2.21 | S 2.17 | D 1.78 | M 2.45 | Q 1.9 | L 1.97 | P 2.11 | N 2.88 | K 2.73 | H 1.61 | R 1.77 | Y 3.25 | T 1.54
Y3: A 1.99 | P 2.06 | M 2.14 | R 2.4 | C 1.55 | E 3.13 | V 2.33 | N 3.08 | S 2.51 | G 1.59 | D 3.2 | K 1.62 | Q 1.76 | F 2.88 | H 1.67 | W 3.91 | T 1.66
Q15: I 2.03 | H 2.42 | T 4.18 | W 2.58 | E 1.94 | F 1.61 | V 4.47 | P 2.48 | D 1.63 | L 2.49 | M 2.46 | R 3.58 | K 1.03 | N 3.18 | G 2.44 | A 3.27
F18: E 2.2 | H 1.48 | P 2.02 | K 1.8 | V 2.57 | T 1.74 | Q 1.8 | C 2.26 | D 2.07 | W 1.24 | R 1.82 | S 2.07 | G 2.31 | A 2.89 | M 2.26 | Y 1.8 | N 1.67 | L 2.32
S16: I 2.81 | D 2.08 | T 3.01 | K 1.63 | Q 2.42 | P 1.1 | W 3.41 | N 1.21 | H 2.01 | Y 4.23 | R 1.28 | F 3.61 | A 3.62
N10: D 2.75 | R 2.25 | T 2.49 | M 3.39 | Q 2.97 | H 1.97 | C 2.87 | Y 2.25 | K 1.89 | A 2.67 | P 2 | E 3.78 | S 1.95 | W 3.08 | L 1.28
K11: S 2.96 | D 1.96 | T 2.14 | L 3.44 | Y 3.58 | G 1.65 | Q 1.84 | W 1.68 | I 3.18 | R 1.96 | E 3.5 | A 1.36 | H 1.95 | P 2.17 | N 3.07
G12: D 3.02 | F 3.77 | Q 1.37 | T 1.8 | K 2.31 | E 1.8 | H 1.15 | Y 2.49 | V 1.91 | M 2.18 | S 2.38 | L 4.29 | C 1.53 | A 1.89 | R 1.58
L14: N 1.29 | Q 1.25 | F 1.93 | W 2.63 | V 1.84 | D 2.06 | M 2.88 | P 2.86 | R 2.06 | A 2.63 | Y 2.04 | K 2.29 | S 2.72 | T 2.14 | E 1.62
S17: Y 3.31 | T 1.43 | A 2.28 | L 1.12 | K 2.12 | G 1.73 | P 2.33 | C 2.28
